# In patent US20100272736A1 (KALOBIOS PHARMACEUTICALS, published 2010):
# Numbering of substitutions follows the chain as printed.
# B1: Fab SEQ ID NOs: 5, 6 (Fab, V domains shown)
# VH: QVQLVESGGGVVQPGRSLRLSCTASGFSFSSYGMHWVRQAPGKGLEWVAVIWYNGKEISYADSVKGRFTVSRDNPKNTLYLQMSSLRTEDTAVYYCARNRGDIYYDFTYAMDIWGQGTMVTVSS
# VL: AIQLTQSPSFLSASVGDRVTITCRASQGISTYLAWYQQKPGKAPKLLIYAASSLQSGVPSRFSGSGSGTDFTLTISSLQPEDVATYYCQQFWSTPYTFGQGTKLEIK
# B2: Fab SEQ ID NOs: 13, 4 (Fab, V domains shown)
# VH: QVQLVESGGGVVQPGRSLRLSCAASGFTFSSYPLHWVRQAPGKGLEWVSFISYDGSEKYYASSVKGRFTISRDNSENTLYLQMNSLRPEDTAVYYCARNRGDIYYDFTYAMDIWGQGTMVTVSS
# VL: DIQMTQSPSSLSASVGDRVTITCRASQSISRWVAWYQQRPGKAPNLLIYDASSLKSGVPSRFSGSGSGTEFTLTISSLQPEDIATYYCQQFWSTPYTFGQGTKLEIK
# B3: Fab SEQ ID NOs: 13, 37 (Fab, V domains shown)
# VH: B2 VH
# VL: B2 VL with S93G
# B4: Fab SEQ ID NOs: 13, 10 (Fab, V domains shown)
# VH: B2 VH
# VL: B1 VL with A1D, A50D, S53A, D70E
# B5: Fab SEQ ID NOs 3, 4 (Fab, V domains shown)
# VH: B1 VH with R16G, T23A, S28T, S31T, Y32A
# VL: B2 VL
# B6: Fab SEQ ID NOs. 24, 26 (Fab, V domains shown)
# VH: B2 VH with Q1E, S31N, L34M, S49A, F50V, Y59W, S62D, E76K, Q82E, M119T
# VL: DIQLTQSPSTLSASVGDSVTITCRASEGVDRWLAWYQQKPGRAPKLLIYDASTLQSGVPSRFSGSGSGTEFSLTISSLQPDDVATYYCQHFWGTPYTFGQGTKLEIK
# B7: Fab SEQ ID NOs. 35. 36 (Fab, V domains shown)
# VH: EVQLVESGGGVVQPGRSLRLSCAASGFTFSNYPMHWVRQAPGKGLEWVAVISYDGSEKWYADSVKGRFTISRDNSKNTLYLEMNSLRPEDTAVYYCARNRGDIYYDFTYAMDYWGQGTTVTVSS
# VL: B6 VL with G93S
# Target: PcrV on Pseudomonas aeruginosa strain PA103 (type III secretion system) (Pseudomonas aeruginosa strain PA103)
# Assay: cell-based or functional assay
row,Binder,"IC50 (nM), TTSS-dependent cytotoxicity assay (PA103 killing of P3-X63-Ag8 myeloma cells, propidium iodide flow cytometry)"
1,B1,50.2 nM
2,B2,20 nM
3,B3,12 nM
4,B4,25.5 nM
5,B5,35.1 nM
6,B6,25.5 nM
7,B7,61.4 nM
